The values below come from article PMC5148612, “Mechanism of cargo-directed Atg8 conjugation during selective autophagy” (eLife, 2016).

What all share (conditions): both partners purified
One test concerns the target T1, Atg12~Atg5-Atg16 complex (S. cerevisiae, UniProt P38316 1-186; Q12380 1-294; Q03818 1-150, conjugated to Atg5 (Atg12~Atg5 protein conjugate) | conjugated to Atg12).
T1 construct: Atg12, S. cerevisiae; Atg5, S. cerevisiae; Atg16, S. cerevisiae; conjugate made by co-expression with Atg7 and Atg10 (SMC131); details in Romanov et al., 2012; also called E3-like complex; source: E. coli Rosetta pLysS; Atg12~Atg5 conjugate mixed 1:1 with purified Atg16, purified by size exclusion chromatography; not shown: GST, N-terminal, cleaved; copies: + +
T1 sequence (looked up) 1: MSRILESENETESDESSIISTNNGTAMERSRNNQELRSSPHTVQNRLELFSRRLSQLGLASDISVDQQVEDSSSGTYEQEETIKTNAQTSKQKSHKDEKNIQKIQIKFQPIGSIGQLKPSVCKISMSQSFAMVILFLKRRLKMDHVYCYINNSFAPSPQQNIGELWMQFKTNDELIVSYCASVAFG
T1 sequence (looked up) 2: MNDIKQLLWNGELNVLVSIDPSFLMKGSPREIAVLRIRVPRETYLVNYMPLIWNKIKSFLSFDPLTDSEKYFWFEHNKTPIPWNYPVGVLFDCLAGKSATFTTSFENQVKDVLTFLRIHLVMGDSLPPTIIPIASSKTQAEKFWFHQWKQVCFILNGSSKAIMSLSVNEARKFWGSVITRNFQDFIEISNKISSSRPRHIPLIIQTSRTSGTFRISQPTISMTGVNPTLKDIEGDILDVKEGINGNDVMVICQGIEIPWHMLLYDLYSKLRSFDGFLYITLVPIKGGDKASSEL
T1 sequence (looked up) 3: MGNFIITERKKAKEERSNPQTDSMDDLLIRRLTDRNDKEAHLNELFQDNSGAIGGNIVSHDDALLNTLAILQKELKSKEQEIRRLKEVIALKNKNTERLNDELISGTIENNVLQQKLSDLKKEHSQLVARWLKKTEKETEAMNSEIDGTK
Nature of the test: pull-down; GST-fused bait 5 µM and GST-free prey 5 µM with glutathione Sepharose 4B, 1 hr at 4°C; washed with 25 mM HEPES pH 7.5, 150 mM NaCl, 1 mM DTT and 0.1% TritonX100; Western blot (Figures 1A, 1C, 2A, 2C).

The target of test [1] is T2, Atg5-mCherry-Atg16 (1–46) complex (S. cerevisiae, UniProt Q12380 1-294; Q03818 1-46).
T2 construct: Atg5, S. cerevisiae; Atg16, S. cerevisiae, first 46 amino acids; a TEV site follows the His tag of Atg5; no cleavage is described; source: E. coli Rosetta pLysS, co-expressed, purified (Ni-NTA, Superdex 200); not shown: mCherry, C-terminal, kept
T2 sequence (looked up) 1: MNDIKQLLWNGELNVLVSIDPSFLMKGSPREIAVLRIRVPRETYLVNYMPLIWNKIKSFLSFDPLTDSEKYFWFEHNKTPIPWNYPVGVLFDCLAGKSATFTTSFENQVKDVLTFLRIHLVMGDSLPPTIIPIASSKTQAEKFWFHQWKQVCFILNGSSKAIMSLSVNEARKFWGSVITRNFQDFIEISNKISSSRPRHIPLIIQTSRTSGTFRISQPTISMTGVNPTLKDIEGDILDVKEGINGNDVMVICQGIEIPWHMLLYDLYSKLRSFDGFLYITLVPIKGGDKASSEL
T2 sequence (looked up) 2: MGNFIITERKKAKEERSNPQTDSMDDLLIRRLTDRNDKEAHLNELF
Nature of the test: microscopy-based protein-protein interaction assay on beads; glutathione beads coated with GST-fused proteins at 30 µM, Atg5-mCherry-Atg16 (1–46) 18 µM, equilibrium (Figure 3B, C).

The target in the next test is T3, Atg5-Atg16 (1–46) (S. cerevisiae, UniProt Q12380 1-294; Q03818 1-46).
T3 construct: Atg5, S. cerevisiae; Atg16, S. cerevisiae, first 46 amino acids; the His tag of Atg5 is followed by a TEV site; also called Atg5 stabilized with the N-terminal helix of Atg16; Atg5-Atg16 (1–46) wild type; source: E. coli, co-expressed and purified in complex
T3 sequence 1: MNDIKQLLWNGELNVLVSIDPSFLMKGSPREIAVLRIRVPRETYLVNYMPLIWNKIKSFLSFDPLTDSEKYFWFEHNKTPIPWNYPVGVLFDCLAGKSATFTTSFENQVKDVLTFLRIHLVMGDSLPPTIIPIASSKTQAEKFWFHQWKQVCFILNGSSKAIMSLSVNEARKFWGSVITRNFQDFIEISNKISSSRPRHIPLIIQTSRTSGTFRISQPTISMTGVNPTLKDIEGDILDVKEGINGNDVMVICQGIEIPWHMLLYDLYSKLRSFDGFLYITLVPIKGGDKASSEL
T3 sequence 2: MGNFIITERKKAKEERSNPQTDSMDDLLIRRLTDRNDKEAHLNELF
In words: pull-down; GST-fused bait 20 µM and GST-free prey 5 µM with glutathione Sepharose 4B, 1 hr at 4°C; washed with 25 mM HEPES pH 7.5, 150 mM NaCl, 1 mM DTT; anti-Atg5 Western blot (Figure 2E, Figure 3—figure supplement 1, Figure 4C). (In general: In western blotting, separated proteins are transferred to a membrane and probed.)

A further test deals with T4, Atg5 (S. cerevisiae, UniProt Q12380 1-294).
T4 construct: Atg5, S. cerevisiae; in the co-purification with Atg16 (1–46) the GST was still on the protein while it was held on glutathione beads; also called GST-Atg5; source: E. coli Rosetta pLysS, on glutathione beads, cleaved off with thrombin; not shown: GST, N-terminal, cleaved
T4 sequence (looked up): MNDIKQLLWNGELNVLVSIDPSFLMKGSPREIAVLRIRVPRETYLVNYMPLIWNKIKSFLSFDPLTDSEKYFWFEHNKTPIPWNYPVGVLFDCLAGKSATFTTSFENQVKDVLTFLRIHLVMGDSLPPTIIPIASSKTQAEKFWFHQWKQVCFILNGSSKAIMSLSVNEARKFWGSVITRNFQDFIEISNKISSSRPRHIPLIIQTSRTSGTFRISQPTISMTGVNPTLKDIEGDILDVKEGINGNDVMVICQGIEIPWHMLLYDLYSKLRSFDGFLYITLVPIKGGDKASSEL
Nature of the test: SEC; separately purified proteins mixed in a molar ratio 1:1 for 30 min at 4°C or on ice; the resulting complex purified on Superdex S200 16/60.

The target of another test is T5, Atg12~Atg5 conjugate (S. cerevisiae, UniProt P38316 1-186; Q12380 1-294, conjugated to Atg5 (Atg12~Atg5 protein conjugate) | conjugated to Atg12).
T5 construct: Atg12, S. cerevisiae; Atg5, S. cerevisiae; the two chains are covalently joined; source: E. coli Rosetta pLysS, co-expression of 6xHis-Atg5, Atg12, Atg7 and Atg10, purified
T5 sequence (looked up) 1: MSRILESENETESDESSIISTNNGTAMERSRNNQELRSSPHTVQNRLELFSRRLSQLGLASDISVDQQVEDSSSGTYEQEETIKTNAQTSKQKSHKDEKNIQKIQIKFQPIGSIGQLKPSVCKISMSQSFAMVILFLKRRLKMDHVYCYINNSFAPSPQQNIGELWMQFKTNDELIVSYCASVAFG
T5 sequence (looked up) 2: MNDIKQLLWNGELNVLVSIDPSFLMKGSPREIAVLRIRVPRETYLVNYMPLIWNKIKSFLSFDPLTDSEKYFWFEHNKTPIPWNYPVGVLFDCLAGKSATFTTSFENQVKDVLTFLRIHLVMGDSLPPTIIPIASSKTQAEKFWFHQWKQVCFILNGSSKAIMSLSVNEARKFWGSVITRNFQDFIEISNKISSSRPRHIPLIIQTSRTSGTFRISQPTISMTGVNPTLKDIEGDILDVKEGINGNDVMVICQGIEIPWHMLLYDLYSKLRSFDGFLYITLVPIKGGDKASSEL
Described as above.

B1: GST-Atg34 (natural protein, S. cerevisiae, UniProt Q12292 1-412, looked up)
chain: MKIAVETTLFDFFVIDQFKKSTFSAPNTKVDTIKGCINKFIEQFNVYDEQHIFWQPPGKSNVRLLSNANDFGQLGNFLHKKIKCNIFIGEEALRKYDLNICGPYDKFVENSDPSVKKVVNRDDVMLSRKCLNIISEQLSILEKSISKAQNQVLQSSEVEGKKCIILPEDKPELIKFFSKFETSVQLQEVYEGYKVYEKLLQKFGGQKKRMESFLNENTPMSGAEAIKQINISEELKEKGERLTTPNDPLLHVEVSNEDNSLHFILYNKTNIIIPGNCTFEFSSQISEVFSIKMGPHEIGIKGQKELWFFPSLPTPLSNYTMKVVNQDGETILVGKCADSNEITLKSPLASFSTGSFQTGSFHTLQDPTNVFRADALSSPDESSIMSTPFLGETDEVYNSGSTLSRPFTWEEI
notes: Atg34, S. cerevisiae cargo receptor; also called α-mannosidase (Ams1) receptor; source: E. coli Rosetta pLysS, purified; not shown: GST, N-terminal, kept
Take B1: the binding result with Atg12~Atg5-Atg16 complex is listed as “binds”.

B2: GST-Atg19(365–407) (domain or fragment, S. cerevisiae, UniProt P35193 365-407, looked up)
chain: SAESLQASQEPFYSFQIDTLPELDDSSIISTSISLSYDGDDNE
notes: Atg19, S. cerevisiae; also called Atg19 C-terminal domain with the canonical AIM motif deleted; source: E. coli Rosetta pLysS, purified; not shown: GST, N-terminal, kept
As to B2, the binding result (in test [1]; with Atg5-Atg16 (1–46)) was “binds” each time.

B3: Atg16 (natural protein, S. cerevisiae, UniProt Q03818 1-150, looked up)
chain: MGNFIITERKKAKEERSNPQTDSMDDLLIRRLTDRNDKEAHLNELFQDNSGAIGGNIVSHDDALLNTLAILQKELKSKEQEIRRLKEVIALKNKNTERLNDELISGTIENNVLQQKLSDLKKEHSQLVARWLKKTEKETEAMNSEIDGTK
notes: Atg16, S. cerevisiae; also called purified Atg16; GST-Atg16; source: E. coli Rosetta pLysS, purified
With B3, the binding result in the test with Atg5 and with Atg12~Atg5 conjugate was “binds” throughout.

B4: Atg16-meGFP (natural protein, S. cerevisiae, UniProt Q03818 1-150, looked up)
chain: MGNFIITERKKAKEERSNPQTDSMDDLLIRRLTDRNDKEAHLNELFQDNSGAIGGNIVSHDDALLNTLAILQKELKSKEQEIRRLKEVIALKNKNTERLNDELISGTIENNVLQQKLSDLKKEHSQLVARWLKKTEKETEAMNSEIDGTK
notes: Atg16, S. cerevisiae; source: E. coli Rosetta pLysS, purified; not shown: meGFP, C-terminal, kept
Regarding B4, in the test with Atg5, the binding result is listed as “binds”.
